Consider one substance from article PMC5034038.

Assay [1] addresses GFP-CaV2.2 K-R-HA (rabbit) (UniProt Q05152).
For a further assay, the target named is GFP-CaV2.2-HA (rabbit) (UniProt Q05152).

In assay [1], “CaVβ1b-GFP (from UniProt P54283 1-597) (natural protein)” had a Gmax (whole cell conductance) from Boltzmann fits, whole cell patch clamp of tsA-201 cells with CaVα2δ-1, 1 mM Ba2+ of 4.5 nS/pF; an IBa current density at +5 mV, whole cell patch clamp of tsA-201 cells with CaVα2δ-1, 1 mM Ba2+ of 148 pA/pF; a V50 of activation from Boltzmann fits of current density-voltage relationships, whole cell patch clamp of tsA-201 cells with CaVα2δ-1, 1 mM Ba2+ of 1.3 mV. Moreover, in the assay with GFP-CaV2.2-HA (rabbit), the Gmax (whole cell conductance) from Boltzmann fits, whole cell patch clamp of tsA-201 cells with CaVα2δ-1, 1 mM Ba2+ worked out at 7.7 nS/pF; the IBa current density at +5 mV, whole cell patch clamp of tsA-201 cells with CaVα2δ-1, 1 mM Ba2+ worked out at 277 pA/pF; the V50 of activation from Boltzmann fits of current density-voltage relationships, whole cell patch clamp of tsA-201 cells with CaVα2δ-1, 1 mM Ba2+ was -4.7 mV.
